Source: the DeepSol protein solubility set

Experiment: soluble on expression in E. coli; label from the status in PepcDB or PDB records

Row | Sequence | soluble on expression in E. coli
1 | RPIGIYEKATPTHCTWLERLNFAKELGFDFVEMSIDERDERLARLDWSKEERLEVVKAIYETGVRIPSICFSGHRRYPLGSKDPVLEEKSLELMKKCIELAQDLGVRTIQLAGYDVYYEEKSPQTRQRFIKNLRKACDWAEEAQVVLAIEIMDDPFISSIEKYLAIEKEIDSPFLFVYPDIGNVSAWHNDIYSEFYLGHHAIAALHLKDTYAVTESSKGQFRDVPFGQGCVKWEEAFDILKETNYNGPFLIEMWSENCETVEETRAAIQEAQAFLYPLIKKAGLM | not soluble
2 | MSKLIKGIAASDGVAIAKAYLLVEPDLTFDKNEKVTDVEGEVAKFNSAIEASKVELTKIRNNAEVQLGADKAAIFDAHLLVLDDPELIQPIQDKIKNENANAATALTDVTTQFVTIFESMDNEYMKERAADIRDVSKRVLSHILGVELPNPSMIDESVVIVGNDLTPSDTAQLNKEFVQGFATNIGGRTSASAIMSRSLEIPAIVGTKSITQEVKQGDMIIVDGLNGDVIVNPTEDELIAYQDKRERYFADKKELQKLRDADTVTVDGVHAELAANIGTPNDLPGVIENGAQGIGLYRTEFLYMGRDQMPTEEEQFEAYKEVLEAMGGKRVVVRTLDIGGDKELSYLNLPEEMNPFLGYRAIRLSLAQQDIFRPQLRALLRASVYGKLNIMFPMVATINEFREAKAILLEEKENLKNEGHDISDDIELGIMVEIPATAALADVFAKEVDFFSIGTNDLIQYTLAADRMSERVSYLYQPYNPSILRLVKQVIEASHKEGKWTGMCGEMAGDETAIPLLLGLGLDEFSMSATSILKARRQINGLSKNEMTELANRAVDCATQEEVIELVNNYVK | soluble
3 | MAHHHHHHMCVSELRRLRGHGRNVYIIYDVAKGGTPPPRHFAPTSGWGMIVVPSPNVANYDEWAKQLQAARVIVNCPDEVDVKAICTWMKQGQDPGKQAEYWRIVEERMKRVGPILRYIFDGESYIDPLGAVNDALLAMKPSDVGEYFTLGGEKTWCSEDPCHKLVKIVRARTDEGAEVFLNASISADIGFRTADRLKKEMCARDLLLLILRSHGALASQALEKFGLRAFMYGEPVSALVKGLNELRSPERDEAQDSVLKVNHQGHPTRAVGLA | soluble
4 | MGSDKIHHHHHHMYPFVDRKEELKALKERLTRENFELIVIYGRRRVGKTRLVLEAVRDLPHVYYLAVEGNNLRHFRETAERVFPEVRYSREDWEGTLHALKGKIIVIDEFPNLIKENPRVLSLFQRVIDLDLSNSNTKMILLGSSVSMMTEKVLSYKSPLYGRRTGSMKLKPMGFFSLRVFFPTASWEELVEIYGMTDGIPFYITQVKLPFWEWLEEELSSPVSFFRDEVDFLLKYEFSEVSTYKRILEAIALGKTTPKEIRDFTGLRHSDISPYLRNLIEADLIVREVPVTEKGTSKRGRYYIADNFLAFWFRFIFPNLSRIEEGTFSVEEIRDSYDHYLGLVFEKVARQFLVKLNKAGNLPFKFTKIGRWWHKNEEIDLVALNEREKRALFVEVKWKSLSGREARGILWDLERKSELVGLEGWEKHYGLVAKEIRNKNALKSEGWLVWDLGDFERLISPGEISYL | not soluble
5 | MGSDKIHHHHHHMRNQILKKATVSIMLLLCINVSVADTSTSVSCAESGSASAYSRSGNSVSYSSVNCSSNNEQNAMTPAGIAVSKSYSPEPYTSLVLSGAFNTEIKTSSENRVIISGDSNYVESVEVNSSDGELIIRRPGPGNDNLNVIVESISLQKLKISGAGSTNIYGDFPDGLSVRKSGAGSINIEGQASTLKLNLSGAGNTTARDFTVDNVEIDATGAGNIAVCAKKSVAGSLAGAVHFKVYCNPSQRSVNTRGVSRVSYR | not soluble
6 | MDKLDTLTLFVRIVERGSFSAAAADLGVSRPVATAAIKALEVSLGARLLHRTTRHVRPTAEGSLYYQRCVSILAALEEANRSAGGSISGTIRVDVAGNLARTLLLPALPQFLARYPDITLQIGESERDVDLVREGVDCVIRGGHLPDSEMICRPLAGLQEITCASPTYLARYGTPHTIEGLTGHVMIGFVSSRTQRTLPLSFTQDGRQSEVSLPCRLLTSDADVGAEAARLGFGLYQAPLPRLEADLASGALTEVLADFRPAPLPLSLLYPSNRQLSARVQVFIDWVTALMKPPLAQQASGRLK | not soluble
7 | MGSDKIHHHHHHMAEKPISLSQAPAGYSDWLSELKTKIHSAQQRATLAVNQELVLLYWQIGQEILTRQAELGWGAKVVERLAHDLRTAFPDMKGFSPRNLKYMRAFAEAWPDLEFVQALLAQLPWYHQLALLDKLDNTDSRTWYAQKALENHWSRNVLVMHIESGLHQRQGAAITNFAATLPKPQSDLARESIKDPYRFDFLGLTEAAQEREIEHALVQHVTQFLLELGAGFAFVGRQVLMQVGDEEFFIDLLFYHLKLRCYVVIELKTGKFKPEHLGQLSFYMTAIDKQVKTEPDNATIGLLLCKSKDKVVAEYALGDKSQAMGIAEYKLQQALPEVLESNLPSIEQIERELQGEA | not soluble
8 | MGSDKIHHHHHHMSRDKTLFVCQECGSISNKWLGRCPDCGAWNSFVEQRVEKTVAKSQTTYATASPPQFLHAVPITDVGRSTTGLAELDRVLGGGQVPGAAILLGGEPGIGKSTLLLQTAHHLAQVSKVLYVTGEESAAQVALRAQRLGLGRSPVRVVAENHLEAIEGLLRGEQPALVLVDSIQTVYTDTLQSAPGSVAQVRECAARLVRFAKATGTTVWLVGHVTKEGAIAGPRVLEHMVDTVLYFEGEAGSPYRIVRAIKNRFGAANELGVFQMHEEGLSEVANPSQLFLSQHERPVAGSVVLATQEGTRPLLVEVQALVTPSPLANPRRVAIGLDPNRLSLLLAILHRHGDSMFFDQDVFVNIAGGIKVNEPAADLAVALALVSSFRNKPLEGRRVVFGELGLAGEVRPVAGTEARVREAVKLGFKGAILPRSDKISAAATFKLHPAGRLGDAMEAAFAAE | not soluble
9 | MTNLTLDVNIIDFPSIPVAMLPHRCSPELLNYSVAKFIMWRKETGLSPVNQSQTFGVAWDAPATTAPEAFRFDICGSVSEPIPDNRYGVSNGELTGGRYAVARHVGELDDISHTIWGIIRHWLPASGEKMRKAPILFHYTNLAEGVTEQRLETDVYVPLA | not soluble
10 | AYPHIFGNLGVFSLASWFSERDFLRFLNHHPLDKNSKVFIQVGTKEGDAVDDEFAPNMNQAYIDCTLHYYQSLLRTGHPMEHIDLHIMANEIHHEKYWANHFIEFLKFTLK | not soluble
11 | MAETHSLGTKILIKIIRLYQIMISPFIGARCRFVPTCSCYGIEALKTHGLLKGGWLTLKRVLKCHPLNAGGFDPVPPKTNNNDEKK | not soluble
12 | MYMKHIENGTRIEGEYIKNKVIQYNMSILTDEVKQPMEEVSLVVKNEEGKIFGGVTGTMYFYHLHIDFLWVDESVRHDGYGSQLLHEIEGIAKEKGCRLILLDSFSFQAPEFYKKHGYREYGVVEDHPKGHSQHFFEKRL | soluble
13 | MGSDKIHHHHHHMGHYEHKTKEELLEIVCKLEKKVEGLSSELDSLKKGRFRERYSTRILDALPDMLTVFDHNANIVELASSPTTNHVEGTTSDSIINSNVKDIVPEEAYESVRHNMDKVIHTGKSSTAEHSLMLDGVLHHYENRIFPLDDQYLLCMCRDVSQETEMAKINETQRSEIVRLNSLMNDILNNIPVYLFVKDTGNDFRYLYWNKAFAEHSGISVQRAVGSTDADIFPDKKDAEHFREDDLKVMKLGRIEYLENYTTMSGEVRTVTTMKTVVPSGGQHPYIIGVSWDVTEIKKTEKELIAARIKAEEADRMKSSFLANMSHEIRTPLNAIVGFSKLIIEADNECEKRQYADIVEHNSTVLLNLFNDILDLSALEAGSLELSYHPVRLKDICLQLYELHVKSVKPEVRLVLDEVDSQLCIQGDWERISQVLVNLITNAIKFTSVGEIHFGFQKKADMVQFYMSDTGKGIPAERVATIFQRFGKIDDFVQGTGLGLTICRMLVEKMGGRIWVRSKQGEGTVFYFTLPMAK | not soluble
14 | MKIALSFLFLTSTFSNAGKIGRLQSVAVSGQLNCLGKPAVGVRIDLMESDNNGEETGIIDDNDFMGYTYTDSAGFFNMSGSEVEISGIEPYVNIFHKCNDGLSPCQRQLRVDIPKSATASGPAPNETFSIGTLELSSRKVIGERRSCAYRNLTQTS | not soluble
15 | MKHIIILGDGMADWPVKSLGDKTLLQYAKTPYMDKLARMGRNGRLITVAEGFHPGSEVANMSVLGYNLPKVYEGRGPLEAASIGVDLKPGEMAMRCNLICVEGEILKNHSSGHISTEEADVLIQYLQEKLGNDRVRFHTGVQYRHLLVIKGGNKELDCTPPHDVPLKPFRPLMVKPLVPEAQETADLINDLILKSQELLKNHPLNLKRMSEGKDPANSIWPWSPGYRPQMPAFSETFPQVKKGAVISAVDLINGIGYYAGLRRIAVEGATGLYNTNYENKVAAALEALKTDDFVYLHIEASDEAGHEGDIDLKLLTIENLDKRAVGPIYEAVKDWDEPVAIAVLPDHPTPCELRTHTSDPIPFLIWYPGIEPDEVQTYDEISACDGSYGVLKEDEFIKEFMNQKNIQ | not soluble
16 | MQKLILSALFVALVAADCNMRCPDGYMSFKRTPTPKNSMTGMAILSDTLISPNQAKKVCEKDGSILTSFENFDERTKLSTVLRDFLTAKKLDRGSMIVDGHRLKNCETTDKTVLATVECRNSSSGFTTDEKHTDNTFMWKSWSATEPGQTIFEKSIESCLQLSISQFPARSELINDVFCNYVKHPENEGASDLWNYGAVCGRFPEWI | not soluble
17 | MKKATCLTDDQRWQSVLARDPNADGEFVFAVRTTGIFCRPSCRARHALRENVSFYANASEALAAGFRPCKRCQPDKANPRQHRLDKITHACR | soluble
18 | GMEVNRLSALTPPMGWNSWDCYGASVTEEEVLGNAEYMANHLKKYGWEYIVVDIQWYEPTANSSAYNPFAPLCMDEYGRLLPATNRFPSAKNGAGFKPLSDAIHDLGLKFGIHIMRGIPRQAVYENSPVLGSTKTAREIAHTNSICPWNTDMYGVDPTKEGAQSYYNSLFELYAQWGVDFVKVDDIAASRLYDTHLEEIKMIQRAIQACGRPMVLSLSPGPAPIKYAHHFKTNANMWRITDDFWDDWSLLYQMFERCEVWEKHIGTGHWPDCGMLPLGHIGIRSVDGPGGDRWTRFTKDEQLTMMNLWAICHSPLMFGGELRDNDEWTLSLLTNEGILSINQKSVLNRFVYREEDKVAWAANGRNGEAYVALFNLHDQQKTLQFRLDMVGIMETVQLFNVWDRSFLQSLAPSESFQIELKPHQSMMLKLSPDR | soluble
19 | MKAFEFLYEDFQRGLTVVLDKGLPPKFVEDYLKVCGDYIDFVKFGWGTSAVIDRDVVKEKINYYKDWGIKVYPGGTLFEYAYSKGKFDEFLNECEKLGFEAVEISDGSSDISLEERNNAIKRAKDNGFMVLTEVGKKMPDKDKQLTIDDRIKLINFDLDAGADYVIIEGRESGKGKGLFDKEGKVKENELDVLAKNVDINKVIFEAPQKSQQVAFILKFGSSVNLANIAFDEVISLETLRRGLRGDTFGKV | soluble
20 | MLTMRICLRATYTQKEYKWESTVNEQISAASLYDRVARVIPKAEWMGFQDDVEAILELKRKRNAVILAHNYQTPEIFHGVADIVGDSLALARKAMEVEADVIVLAGVHFMAETAKLLNPEKTVLIPDMAAGCSLADSITPEDIALLRKAYPGVPVVTYVNTSAAVKAASDICCTSGNARQVVESLGVPRVLMLPDEYLAKNVAKETSVELIAWRGHCEVHELFTADDIRELRESHPGVIVLAHPECPPEVVDAADFSGSTAVMSDYVGRERPARVVLLTECSMSDNVAVHHPDVEFIRPCNLCPHMKRITLGNIRTALEENRHEVTVDPAIAGAARRAVERMLQIMAGDPLEHHHHHH | not soluble
21 | MEQMRFKPRPFVKPVKFKCKFCLDCCKGRHVYLTLNDIKRLIDAGYDPQDFLTISIEDGKIRFVLSVREWDLGCVFQDPETGLCKVHPHRPLICRIYPFMVSKKPLGIKGEKKFEINGKSFWLYYDENCPGINDEDGDTITPEEILKLGIKFEEELEATDLDGFLKILRSLEHHHHHH | soluble
